These results are taken from US5444151A, “Platelet derived growth factor antagonists” (Ludwig Institute for Cancer Research, priority 1992, dated 1995).

The subject of the test is human foreskin fibroblasts. Nature of the test: Ligand stimulated [3H]thymidine incorporation. It is filed as cell-based. From the text: The possible role of peptide 16T as an antagonist for PDGF activity in vivo was investigated. Following the methodology of Betsholtz et al., J. Cell Physiol 118: 203-210 (1984), the disclosure of which is incorporated by reference, [^3 H] thymidine incorporation by human fibroblasts in the presence of various peptides was studied.

B1: PDGF-BB: platelet derived growth factor B chain homodimer (protein, UniProt P01127 82-190, looked up)
Platelet-derived growth …: SLGSLTIAEPAMIAECKTRTEVFEISRRLIDRTNANFLVWPPCVEVQRCSGCCNNRNVQCRPTQVQLRPVQVRKIEIVRKKPIFKKATVTLEDHLACKCETVAAARPVT
As for B1, the “[3H]thymidine incorporation, ligand alone” value (no peptide (unstimulated control 483 cpm), mean of duplicates) was found to be 1918 cpm. In addition, the “Stimulation of [3H]thymidine incorporation by ligand” value (no peptide, versus unstimulated control) was found to be 4 fold.
